The nanobody polyreactivity screen of Harvey et al. (2022)

Assay: yeast display, Sf9 membrane polyspecificity reagent, FACS + sequencing; frameworks hold sequencing errors
In short: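 After 36–48 hours of galactose induction, yeast (Saccharomyces cerevisiae BJ5465) displaying a synthetic nanobody library were stained at 4 °C for 1 hour with 10% biotinylated, detergent-solubilized Sf9 membrane reagent. Streptavidin microbeads enriched the stained cells before FACS sorting into low and high (top ~1%) gates on anti-HA and streptavidin fluorescence. Each clone's polyreactivity label reflects its gate of origin.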

Sequence	polyreactivity (PSR sort gate)
QVQLVESGGGLVQAGGSLRLSCAASGITFDYYDMGWYRQAPGKERELVATITSDGSTTYADSVKGRFTISRDNAKNTVYLQMNSLKPEDTAVYYCAAALHIYSYFYITYDYWGQGTQVTVSS	high polyreactivity
QVQLVESGGGLVQAGGSLRLSCAASGITFEGYAMGWFRPAPGKERELVAAIRSSGTSTYYADSVKGRFTISRDNAKTTVYLQMNSQKPVDTAVYYCNRARSSSRYDYWGQGTQVTVSS	low polyreactivity
QVQLVESGGGLVQAGGSLRLSCAASGITFEGYAMGWYRQAPGKEREFVAAITGSGSTTYYADSVKGRFTITRDNAKNTVYLQMNSLKPEDTAVYYCVAYVGSTYSAPEYYWGQGTQVTVSS	low polyreactivity
QVQLVESGGGLVQAGGSLRLSCAASGITFEGYAMGWYRQAPGNEREFVAAITSTGTSTRYADSVKGRFTISRDNAKNTVYLQMNSLKPEDTAVYYCAATSHFLSWHLRYYWGQGTQVTVSS	high polyreactivity
QVQLVESGGGLVQAGGSLRLSCAASGITFEIYAMGWYRQAPGKERELVAAITWRGGSTYYADSVKGRFTISRDNAKNTVYLQMNSLKPDDTAVYYCAAEQYSGEDWGDYWGQGTQVTVSS	low polyreactivity
QVQLVESGGGLVQAGGSLRLSCAASGITFEPYAMGWYRQAPGKEREFVADITWSGGSTYYADSVKGRFTISRDNAMNTGYLQMNSLKPEDTAVYYCAADGWTSYWSDYWGQGTQVTVSS	low polyreactivity
QVQLVESGGGLVQAGGSLRLSCAASGITFFAYAMGWYRQAPGKERELVAAISTDGGSTYYADSVKGRFTISRDNAKNTVYLQMNSLKPEDTAVYYCAAKQRYVRTRGMDYWGQGTQVTVSS	high polyreactivity
QVQLVESGGGLVQAGGSLRLSCAASGITFFDNAMGWYRQAPGKERELVATITGGGASTYYADSVKGRFTISRDNAKNTVYLLMNSLKPEDTAVYYCAADYVDGVYLEYGYWGQGTQVTVSS	low polyreactivity
QVQLVESGGGLVQAGGSLRLSCAASGITFFRYAMGWYRQAPGKERELVAAITTSGSSTFYADSVKGRFTISRDNAKNTVYLLMNSLKPEDTAVYYCAAVFRWARLYEYDYWGQGTQVTVSS	high polyreactivity
QVQLVESGGGLVQAGGSLRLSCAASGITFFRYTMGWYRQAPGKEREFVADISRSGDTTYYADSVKGRFTISRDNAKNSVYLQMNSLKPEDTAVYYCARLTRSGEYGYWGQGTQVTVSS	high polyreactivity
QVQLVESGGGLVQAGGSLRLSCAASGITFFWYAMGWYRQAPGKERELVARITSDGSTSYADSVKGRFTISRDNAKNTVYLQMNSLKREDTAVYYCAADYSYIYQSWSGYENDYWGQGTQVTVSS	high polyreactivity
QVQLVESGGGLVQAGGSLRLSCAASGITFGDNAMGWYRQAPGKERELVAAITLSDVDTYADSVKGRFTISRDNAKNTVYLQMNSLKPEDTAVYYCAADYDFFSSKRFDYWGQGTQVTVSS	low polyreactivity
QVQLVESGGGLVQAGGSLRLSCAASGITFGFNAMGWYRQAPGKERELVAAITWSVGRTYYADSVKGRFTISRDTAKNTVYLQMNSLKPEDTAVYYCAKDFEAGDDYFAYDYWGQGTQVTVSS	low polyreactivity
QVQLVESGGGLVQAGGSLRLSCAASGITFGGNAMGWYRQATGKERELVAGINRSGVSTYYADSVKGRFTISRDNAKNTVYFQMNSLKPEDTAVYYCATGYFSWIYGYYYWGQGTQVTVSS	high polyreactivity
QVQLVESGGGLVQAGGSLRLSCAASGITFGGYAMGWYRQAPGKERELVASIRSGSTTNYADSVKGRFTISRDNAKNTVYLQMNSLKPEDTAVYYCAARNFRNRYGYWGQGTQVTVSS	high polyreactivity
QVQLVESGGGLVQAGGSLRLSCAASGITFGIYVMGCYRQAPGKEREFVATMSRSDDNTYYADSVKGRFTISRDNAKNTVYLQRNSLKPEDTAVYYCAADGVISAWYSSRDDYWGQGTQVTVSS	low polyreactivity
QVQLVESGGGLVQAGGSLRLSCAASGITFGNYAMYWVRQAPGKERELVAAINYSRGSTYYADSVKGRFTISRDNAKNTVYLQMNSLKPQDTAVYYCAADTYPASYDYWGQGTQVTVSS	high polyreactivity
QVQLVESGGGLVQAGGSLRLSCAASGITFGRNTMGWYRQAPGKERELVAAIDSGGNTYADSVKGRFTISRDNAKNTVFLQMNSLKPEDTAVYYCAVDGGEFSSYGYWGQGTQVTVSS	low polyreactivity
QVQLVESGGGLVQAGGSLRLSCAASGITFGRYALGWYRQAPGKERELVATITVNGGRTYYADSVKGRFTISRDNAKNTVYLQMNSLKPEDTAVYYCAAERRNSYVLLFKYNYWGQGTQVTVSS	low polyreactivity
QVQLVESGGGLVQAGGSLRLSCAASGITFGRYAMGWYRQAPGKERELVAAISWSGGSTYYADSVKGRFTISRDNAKNTVYLQMNSLKPEDTAVYYCATRIRTVAYNYWGQGTQVTVSS	high polyreactivity
QVQLVESGGGLVQAGGSLRLSCAASGITFGSKVMGWYRQPPGKEWEFVAVINWSTGSTYYADSVKGRFTISRDNAKNTVYLQMNSLKPEDTAVYYCNTDSGNEWTSYDYWGQGTQVTVSS	low polyreactivity
QVQLVESGGGLVQAGGSLRLSCAASGITFGSYAMGWYRQAPGKERELVAAIRWRGGNTYYADSVKGRFTISRDNAKNTVYLQMNSLKPEDTAVYYCAARRYGYRYDQPYSNDYWGQGTLVTVSS	low polyreactivity

Sequence	polyreactivity (PSR sort gate)
QVQLVESGGGLVQAGGSLRLSCAASGITFGSYAMGWYRQAPGKERELVAAITSGGGTNYADSVKGRFTISRDNAKNTVYLQMNSLKPEDTAVYYCAARYYYLGTRYGYWGQGTQVTVSS	low polyreactivity
QVQLVESGGGLVQAGGSLRLSCAASGITFGVYGKGWYRQEPGKERELVAAISRTGGSTYYADSVKGRFTISRDNAKNTVYLQMNSLKPEDTAVYYCNARPVGRVIGDYWGQGTQVTVSS	high polyreactivity
QVQLVESGGGLVQAGGSLRLSCAASGITFGWYAMGWYRPAPGKERELVAAISWSGGTTYYADSVKGRFTISRDNAKNTVYLQMNSLKPEDTAVYYCAATWYYPTVYAGNYWGQGTQVTVSS	high polyreactivity
QVQLVESGGGLVQAGGSLRLSCAASGITFGYYAMGWSRQAPGKERELVAAINWRGGNTYYADSVKGRFTISRDNAKNTVYLQMNSLKPEDTAVYYCNALYKRYTDYDYWGQGSQVTVSS	high polyreactivity
QVQLVESGGGLVQAGGSLRLSCAASGITFGYYAMGWYRQAPGKERELVAAITWSGSSTYYADSVKGRFTISRDNAKNTVYLQMNSLKPEDTAVYYCAAEYSSHYAVWRGHSGYWGQGTQVTVSS	high polyreactivity
QVQLVESGGGLVQAGGSLRLSCAASGITFHRYDMGWYRQAPGKERELVADITWSGGSTYYADSVKGRFTISRDNAKNTVYLQMNSLKPEDTSVYYCAADASTYTYTPYDYWGQGTQVTVSS	low polyreactivity
QVQLVESGGGLVQAGGSLRLSCAASGITFHYKAMGWYIQAPGKERELVATIRRGGITKYADSVKGRFTISRDNAKNTVYLQMNSLKPEDTAVYYCAAGYYSHGAWFDHWGEGTQVTVSS	low polyreactivity
QVQLVESGGGLVQAGGSLRLSCAASGITFIGYAMGWYRQAPGKERELVAAITTNGGGTYYADSVKWRFTISRDNAKKTVYLQMNSLKPEDTAVYYCNAVKQRSSIFDYWGQGSQVTVSS	low polyreactivity
QVQLVESGGGLVQAGGSLRLSCAASGITFILNPMGWNRQAPGKEREFVAAISTSGGNTYYADSVKGRFTISRDYAKYTVYLEMNSLKPEDTAVYYCNADWGVVYISYSPEYDYWGHGTQVTVSS	low polyreactivity
QVQLVESGGGLVQAGGSLRLSCAASGITFINYDMGWYRQAPGKERELVAAISQIGTSTYYADSVKGRCTISRDNAKNTVYLQMNSLKPEDTAVYYCNARYISTGFRYNYWGQGTQVTVSS	high polyreactivity
QVQLVESGGGLVQAGGSLRLSCAASGITFISYAMGWYRQAPGKERELVAGITSDDSTSYADSVKGRFTISRDNAKNTVYLQMNSVKPEDTAVYYCAARSYTLRTSTGRLYRYYYWGQGTQVTVSS	high polyreactivity
QVQLVESGGGLVQAGGSLRLSCAASGITFIVNTMGWYRQAPGKEREFVATISANSDGTYYADSVKGRFTISRDNAKNTVYLQMNSLKPEDTAVYYWGQGTQVTVSS	low polyreactivity
QVQLVESGGGLVQAGGSLRLSCAASGITFIYYAMGWYRQAPGKEREFVAAITFRDGDTYYADSVKGRFTISRDNAKNTVYLQMNSLKPEDTAVYYCADTYWVYYFYPGYDYWGQGTQVTVSS	low polyreactivity
QVQLVESGGGLVQAGGSLRLSCAASGITFIYYTMGWYRQEPGKERELVAAISSRGSSTYYADSVKGRFTISRDNAKNTVYLQMNSLKPEDTAVYYCAAVQYRYGGMDYWGQGTQVTVSS	high polyreactivity
QVQLVESGGGLVQAGGSLRLSCAASGITFKAYAMGWYRQAPGKDRELVAAINTSGARTYYADSVKGRFTISRDNAKNTVYLQMNSLKPEDTAVYYCNARLHQQEGDYWGQGTQVTVSS	low polyreactivity
QVQLVESGGGLVQAGGSLRLSCAASGITFKAYVMGWYRQAPGKERELVAAITRSGGRTYYADSVKGRFTISRDNAKNTVFLQMNSLKPEDTAVYYCAADGPHHGDGYWGQGTQVTVSS	high polyreactivity
QVQLVESGGGLVQAGGSLRLSCAASGITFKFYAMGWYRQAPGKERELVAAIDSRGGSTYYADSVKGRFTISRDNAKNTVYLQMNSLKPEDTSVYYCNKVGRRKLDYWGQGTQVTVSS	high polyreactivity
QVQLVESGGGLVQAGGSLRLSCAASGITFKGNAMGWYRQAPGKERELVAVITWSGGSTYYADSVKGRFTISRDNAKNTVYLQMNSLKPEDTAVYYCAKPWIYGDSQYDYWGQGTQVTVSS	low polyreactivity
QVQLVESGGGLVQAGGSLRLSCAASGITFKSYAMGWYRQAPGKERELVAAIARRGGSTYYADSVKGRFTISRDNAKNTVYLQMNSLKPEDTAVYYCAADSGREPKGPSRLTYWGQGTQVTVSS	high polyreactivity
QVQLVESGGGLVQAGGSLRLSCAASGITFKSYAMGWYRQAPGKERELVAAISRRGGSTYYADSVKGRFTISRDNAKNTVYLQMNSLKPEDTAVYYCAADSGREPKGPSRLTYWGQGTQVTVSS	high polyreactivity
QVQLVESGGGLVQAGGSLRLSCAASGITFKWYAMGWYRQAPGKERELVAAISWSTGSTYYADSVKGRFTISRDNAKNTVYLPMNSLKPEDTAVYYCAARVKRPQTGYDRRYGYWGQGTQVTVSS	high polyreactivity
